From PMC2993938, “Characterization of an Antennal Carboxylesterase from the Pest Moth Spodoptera littoralis Degrading a Host Plant Odorant” (PLoS ONE, 2010)

Substrate: CC/C=C\CCOC(C)=O
Test: GC quantification of (Z)-3-hexenol formed, nonlinear regression
Format: biochemical, Spodoptera littoralis
Conditions: 20 mM Tris pH 7.4 and 28 °C (stated for the hydrolysis assay), 5 min incubation, 1 mM to 20 mM substrate, no detergent

B1: SlCXE10 (Spodoptera littoralis) (protein)
chain: MVQVRVSEGVLEGEQVQNEYGGSFYRFRGIPYAQPPLGDLRFKAPQPIKPWQGVRQAKQFGSVCYQYNPTNLGLSNMSEDCLYVNVYTPDIKPQTPIPVMVWIHGGGFMWGSGNDDLYGPEFLIRHNVVLVTFNYRLEALGFLCLDTADVPGNAGMKDQVAALRWVKRNIANFGGNPDNITIFGESAGGGSVSHHLISPMSKGLFNRAIPQSGSTACFWATAFEPKEKAILLAKQLGFHSEDPKELYEFFKKQPCENLVKLNLQVTTSQKSYEIHFSIANEKDFGQERFFYGDIVDVIKNNLQEGVDIMTGYTKDEYTIAVSIGGPLEDILAKAQRYREFFAPKLLHNYGTITDQLEAARKLQKFYFKNEKVSKDNIDNLLNYMSVDMFVYGVMFAAKLYSRKNKVYVYKFNCFSERNVLANAFCVGHLTDDRSVVSHADDLAYLFPVKLFTQKVNKTSVTFKLIDRVTTLWTNFAKYGNPTPDDSLGVKWLPYTLAAQDYMDIGNTLVPGNSPDKEELDFWESVLHQHLPKFSTLNQ
notes: complete ORF (no signal peptide), C-terminal 6His tag kept (pBlueBac4.5/V5-His TOPO), baculovirus / Sf21 cells, Ni-NTA purified, about 60 kDa (predicted 61 kDa)
  Km: 11.4 ± 4.8 mM
